Experimental data published in patent US20240010696A1.

Target: mouse IL-12 receptor on cells (mouse) (UniProt Q60837)
Test: cell-based or functional assay

Sequence of mouse IL-12 receptor on cells (mouse) (Q60837 20-738, chain 1 of 2): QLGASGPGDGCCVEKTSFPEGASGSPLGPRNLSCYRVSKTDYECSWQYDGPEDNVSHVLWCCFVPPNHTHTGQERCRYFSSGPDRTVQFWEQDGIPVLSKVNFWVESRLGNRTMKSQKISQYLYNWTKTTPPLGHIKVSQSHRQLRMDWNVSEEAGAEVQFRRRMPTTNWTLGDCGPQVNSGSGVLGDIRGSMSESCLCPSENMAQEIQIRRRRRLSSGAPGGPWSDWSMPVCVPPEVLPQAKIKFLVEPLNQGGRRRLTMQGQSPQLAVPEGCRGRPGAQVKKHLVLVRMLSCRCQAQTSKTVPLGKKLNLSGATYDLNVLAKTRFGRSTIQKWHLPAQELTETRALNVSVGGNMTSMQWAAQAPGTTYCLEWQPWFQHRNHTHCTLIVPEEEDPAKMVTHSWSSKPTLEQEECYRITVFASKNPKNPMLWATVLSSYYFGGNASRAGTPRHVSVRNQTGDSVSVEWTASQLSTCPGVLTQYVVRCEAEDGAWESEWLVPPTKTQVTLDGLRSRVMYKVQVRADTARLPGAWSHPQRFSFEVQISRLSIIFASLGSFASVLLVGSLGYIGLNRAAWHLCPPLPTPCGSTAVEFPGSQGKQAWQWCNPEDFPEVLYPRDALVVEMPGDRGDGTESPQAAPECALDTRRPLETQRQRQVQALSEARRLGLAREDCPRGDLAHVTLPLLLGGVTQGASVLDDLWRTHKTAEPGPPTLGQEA
Sequence of mouse IL-12 receptor on cells (mouse) (P97378 24-874, chain 2 of 2, further chain): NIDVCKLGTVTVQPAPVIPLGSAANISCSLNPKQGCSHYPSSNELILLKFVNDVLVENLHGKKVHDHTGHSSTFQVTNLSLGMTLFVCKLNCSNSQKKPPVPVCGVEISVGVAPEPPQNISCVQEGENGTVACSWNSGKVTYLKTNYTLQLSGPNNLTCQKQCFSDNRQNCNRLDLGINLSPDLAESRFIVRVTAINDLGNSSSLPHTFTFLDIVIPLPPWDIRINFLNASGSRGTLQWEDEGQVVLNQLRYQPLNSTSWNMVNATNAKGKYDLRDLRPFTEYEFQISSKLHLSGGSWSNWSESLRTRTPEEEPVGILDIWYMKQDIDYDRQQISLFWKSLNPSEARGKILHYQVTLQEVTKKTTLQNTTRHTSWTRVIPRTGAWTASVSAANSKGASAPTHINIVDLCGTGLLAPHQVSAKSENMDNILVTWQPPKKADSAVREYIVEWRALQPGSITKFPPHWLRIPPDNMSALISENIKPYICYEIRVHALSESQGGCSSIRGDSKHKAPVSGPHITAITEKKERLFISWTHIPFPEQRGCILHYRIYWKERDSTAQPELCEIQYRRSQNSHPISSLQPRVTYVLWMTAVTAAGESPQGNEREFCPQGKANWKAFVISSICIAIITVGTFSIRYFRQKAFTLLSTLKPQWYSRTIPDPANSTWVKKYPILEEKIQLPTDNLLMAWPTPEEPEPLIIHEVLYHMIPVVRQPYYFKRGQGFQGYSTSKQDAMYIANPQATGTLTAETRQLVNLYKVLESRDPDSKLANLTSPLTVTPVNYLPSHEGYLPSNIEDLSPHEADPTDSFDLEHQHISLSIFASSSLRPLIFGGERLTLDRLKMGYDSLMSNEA

- Reduction in pSTAT4 production of 2) mutein IL-12 fused to isotype mAb as compared to 1) wild-type IL12 fused to isotype mAb (activated mouse CD4 T cells, flow cytometry): 23200 fold
B1: mIL12 mutein-isotype (mouse IL-12 mutein fused to a human isotype (IgG1) control antibody) (protein, part only; not given: isotype control antibody, part only)
chain: MWELEKDVYVVEVDWTPDAPGETVNLTCDTPEEDDITWTSDQRHGVIGSGKTLTITVKEFLDAGQYTCHKGGETLSHSHLLLHKKENGIWSTEILKNFKNKTFLKCEAPNYSGRFTCSWLVQRNMDLKFNIKSSSSSPDSRAVTCGMASLSAEKVTLDQRDYEKYSVSCQEDVTCPTAEETLPIELALEARQQNKYENYSTSFFIRDIIKPDPPKNLQMKPLKNSQVEVSWEYPDSWSTPHSYFSLKFFVGGGEKMKETEEGCNQKGAFLVEKTSTEVQCKGGNVCVQAQDRYYNSSCSKWACVPCRVRSGGGGGGSRVIPVSGPARCLSQSRNLLKTTDDMVKTAREKLEFYPCTAEDIDHEDITRDQTSTLKTCLPLELHKNESCLATRETSSTTRGSCLPPQKTSLMMTLCLGSIYEDLKMYQTEFQAINAALQNHNHQQIILDKGMLVAIDELMQSLNHNGETLRQKPPVGEADPYRVKMKLCILLHAFSTRVVTINRVMGYLSSA
